How the values were obtained:
Test in all cases: HPLC, Lineweaver-Burk
Assay type in all cases: biochemical, Albuca bracteata
HPLC, Lineweaver-Burk [1] = substrate: O=C1C[C@@H](c2ccc(O)cc2)Oc2cc(O)cc(O)c21; conditions: F3H activity, apparent Km, 2-oxoglutarate, Fe2+, ascorbate, pH 6.0, 20 °C
From the text: (§1) HPLC, Lineweaver-Burk on OcFLS1

HPLC, Lineweaver-Burk [2] = substrate: O=C1c2c(O)cc(O)cc2O[C@H](c2ccc(O)cc2)[C@H]1O; conditions: FLS activity, apparent Km, 2-oxoglutarate, Fe2+, ascorbate, pH 6.0, 20 °C
From the text: as §1

HPLC, Lineweaver-Burk [3] = substrate: O=C1C[C@@H](c2ccc(O)cc2)Oc2cc(O)cc(O)c21; conditions: F3H activity, apparent Km, 2-oxoglutarate, Fe2+, ascorbate, pH 6.0, 20 °C; remark: listed apart in the source
From the text: (§2) HPLC, Lineweaver-Burk on OcFLS2

HPLC, Lineweaver-Burk [4] = substrate: O=C1c2c(O)cc(O)cc2O[C@H](c2ccc(O)cc2)[C@H]1O; conditions: FLS activity, apparent Km, 2-oxoglutarate, Fe2+, ascorbate, pH 6.0, 20 °C; remark: listed apart in the source
From the text: as §2

Protein | Km (HPLC, Lineweaver-Burk [1]) | Vmax (HPLC, Lineweaver-Burk [1]) | Km (HPLC, Lineweaver-Burk [2]) | Vmax (HPLC, Lineweaver-Burk [2]) | Km (HPLC, Lineweaver-Burk [3]) | Vmax (HPLC, Lineweaver-Burk [3]) | Km (HPLC, Lineweaver-Burk [4]) | Vmax (HPLC, Lineweaver-Burk [4])
OcFLS1 (Albuca bracteata) (protein) MEVERVQAIASMTASLGTIPAEFIRSEHERPDITTYHGPVPDIPVVDLSATDRAGVTKAIAEAAQEWGIFQVVNHRVPIEAIKELQRVGKEFFELPQEEKEAYATVPDSGSFEGYGTRLQKDLEGKKAWVDYLFHNVWPQSKITYRFWPNNPPEYRKANEEYAKYLQGVVDEMLTSLSLGLGLESHVLKEAVGGDELEYLLKINYYPPCPRPDLALGVVAHTDMSAITILVPNEVPGLQVFKDDHWFDAKYIPNALIVHIGDQIEILSNGKYKSVLHRTTVNKEKARMSWPVFCSPPGEMIVGPLPQLVSDENSAKFKTKKYKDYSYCKINKLPQ | 37.57 ± 6.316 µM | 2.05 µM/min | 471.3 ± 179 µM | 12.9 µM/min |  |  |  | 
OcFLS2 (Albuca bracteata) (protein) MEVERVQAIASMTASLGTIPAEFIRSEHERPDITTYHGPVPDIPVIDLSDTDRAAVAKAIADAAQEWGIFQVVNHGIPVEAIKELQRVGKGFFELPQEEKEAYATVPDSGSFEGYGTKLQKDLGGKKAWVDYLFHNVWPESKINYRFWPNNPPEYRKANEEYAKYLQEVVDEMLSSLSVGLGLEGHVLKEAVGGDELEYLLKINYYPPCPRPDLALGVVAHTDMSAITILVPNEVPGLQVFKDDHWFDAKYIPNALIVHIGDQIEILSNGKYKSVLHRTTVNKEKARMSWPVFCSPPGEMIVGPLPQLVSDENPAKFKTKKYKEYSYCKINKLPQ |  |  |  |  | 110.5 ± 20.86 µM | 5.82 µM/min | 525.7 ± 198.4 µM | 15.1 µM/min
